Measured values as given in US20110287023A1 (AstraZeneca / MedImmune, published 2011).

Legend:
[1] = biological target: T1, recombinant HMG1 produced in E. coli as a calmodulin binding protein (CBP) fusion (human); experiment: BIAcore 3000, mAb amine-coupled to CM5, HMG1 injected, steady-state model
T1 construct: also called rHMG1; rHMGB1
Summary of the method: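 Each mAb amine-coupled to a CM5 chip alongside a reference flow cell; two-fold serial dilutions of E. coli-expressed CBP-fusion HMG1 injected at slow flow. Surfaces regenerated with 1M NaCl-50 mM NaOH. Affinity derived from binding curves by a steady-state model.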

[2] = biological target: T2, HMG1 B Box peptide amino acids 150-183; experiment: ELISA, HMG1 B Box peptide 150-183 coated at 10 ug/ml, antibody titrated, OD 450
T2 peptide: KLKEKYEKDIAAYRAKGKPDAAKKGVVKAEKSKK
Summary of the method: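 Plates blocked with 4% milk/PBS, or biotinylated peptides captured on avidin wells after 1% BSA blocking (30 min RT). Human anti-HMG1 antibodies titrated or serially diluted from 10 μg/ml, detected with anti-human IgG-HRP and TMB substrate, absorbance at 450 nm.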

[3] = biological target: T1, recombinant HMG1 produced in E. coli as …; experiment: cell-based or functional assay
[4] = biological target: T3, HMG1 purified from calf (bovine) thymus (bovine, UniProt P10103 2-215); experiment: direct ELISA, calf thymus HMGB1 coated at 5 ug/mL, antibody at 10 ug/mL, anti-human kappa/lambda-HRP, OD 490
T3 construct: also called Calf thymus HMGB1; thymus HMG1
T3 sequence (looked up): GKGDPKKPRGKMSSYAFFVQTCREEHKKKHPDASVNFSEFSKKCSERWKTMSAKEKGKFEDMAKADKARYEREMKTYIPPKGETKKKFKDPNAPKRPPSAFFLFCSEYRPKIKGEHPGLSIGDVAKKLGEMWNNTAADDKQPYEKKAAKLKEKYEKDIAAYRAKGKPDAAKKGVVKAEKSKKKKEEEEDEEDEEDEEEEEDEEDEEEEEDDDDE
Summary of the method: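 Calf thymus HMGB1 or HMGB2 coated at 5 ug/mL in 10 mM PBS pH 7.2 overnight at 4 °C; anti-HMGB1 antibody added at 10 ug/mL final in PBS + 1% BSA, 1 h at room temperature. Detection with HRP anti-human kappa plus lambda (1:1000, 1 h), OPD substrate 20-30 min in the dark, H₂SO₄ stop, absorbance 490 nm.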

[5] = biological target: T4, HMG2 coated on ELISA plates (Bos taurus (Bovine), UniProt P40673 2-209); experiment: direct ELISA, HMGB2 coated at 5 ug/mL, OD 490
T4 construct: also called HMGB2; HMBG2
T4 sequence: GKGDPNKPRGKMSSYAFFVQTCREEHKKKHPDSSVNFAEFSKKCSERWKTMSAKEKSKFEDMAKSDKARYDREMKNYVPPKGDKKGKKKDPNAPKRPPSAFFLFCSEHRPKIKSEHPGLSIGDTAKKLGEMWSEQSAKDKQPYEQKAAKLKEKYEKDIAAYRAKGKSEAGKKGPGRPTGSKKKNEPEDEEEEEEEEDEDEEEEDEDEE
Description: Binding to HMG1 vs. HMG2: Ultra high-binding ELISA plates (ThermoLab systems, #3855) were coated with either 5 ug/mL of Calf thymus HMGB1 or HMBG2 diluted in 10 mM Phosphate buffered saline (PBS), pH 7.2 and incubate overnight at 4 degrees. The plates were washed twice with Ca and Mg free PBS and 100 microliters of anti-HMGB1 antibody diluted in 10 mM PBS, pH 7.2+1% bovine serum albumin (BSA) to a final concentration of 10 ug/mL was added to each well and the plates were incubated 1 hour at room temperature. The wells were washed three times with 100 μl of PBS, pH 7.2. HRP labeled goat-anti-human IgG Kappa-chain (KPL, #14-10-10) and goat-anti-human IgG Lambda-chain (KPL, #14-10-11) were diluted in 10 mM PBS+1% BSA 1:1000 and 100 μl were added to each well and incubated for 1 hour at room temperature. The wells were then washed three times with 100 μl of PBS, pH 7.2. OPD substrate (Pierce chemical company, #34006) was prepared following the manufacturers instructions and 100 μl of prepared substrate was added to each well and the plates incubated at room temperature in the dark for 20-30 minutes. The reaction was stopped with the addition of 100 μl of 2M H₂SO₄, and the plates read on a plate reader at a wavelength of 490 nm.

[6] = biological target: T1, recombinant HMG1 produced in E. coli as …; experiment: ELISA, coated RAGE-Fc, rHMG1 preincubated with antibody
Description: HMG1 binding to RAGE-Ig by ELISA: 50 μl/well of RAGE-Fc fusion protein at 5 μg/ml in PBS was added to each well of an ELISA plate and incubated overnight at 4° C. The plate was then blocked with 200 μl of 5% milk at 37° C. for 1 hr and washed 3× with PBS/Tween. 50 μl/well of diluted HMGB1 solution. For dose curves, HMGB1 concentrations started at 4 ug/ml in PBS. For antibody blocking the HMGB1 was preincubated in another plate with human anti-HMG1 antibodies or buffer, then transferred to the RAGE-coated plate. The plates were then incubated at room temperature for 2 hours and washed 3×. To detect any HMG1 bound to the immobilized RAGE-Fc a mixture of biotinylated mouse anti-HMG1 mAbs (10D4, 4H11, 3E10 and 5C12) each at 1 ug/ml, total Ab: 4 ug/ml, were added to each well and the plate was incubated for 1 hour at room temperature. The plate was then washed and Strepavidin-HPR was added to each well and incubated 15 min. The plate was then washed 3× and blotted dry. 100 μl of TMB developing agent was added and the plate read at 650 nm. Values were calculated as percent of inhibition with HMG1 alone equal to 0% inhibition. The data in FIG. 9 and summarized in Table 1 represent the average of two separate experiments.

T1 sequence (P09429 whole entry, the tested form may be a part): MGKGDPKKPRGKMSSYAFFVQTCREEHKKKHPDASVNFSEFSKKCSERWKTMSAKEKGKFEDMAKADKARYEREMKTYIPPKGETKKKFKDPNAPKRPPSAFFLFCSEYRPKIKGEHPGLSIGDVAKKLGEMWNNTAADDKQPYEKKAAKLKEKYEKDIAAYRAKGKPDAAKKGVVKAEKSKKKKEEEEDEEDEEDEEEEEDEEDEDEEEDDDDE

Binder	Kd [1] [nM]	binding result [2]	IC50 IL-1β [3] [µg/mL]	IC50 IL-6 [3] [nM]	IC50 NO [3] [µg/mL]	IC50 TNF-α [3] [µg/mL]	binding result [4]	binding result [5]	percent inhibition of HMG1 binding to RAGE [6] [%]	IC50 IL-12 [3] [µg/mL]
human anti-HMG1 antibody S6 (antibody, V domains shown, full length IgG1 made from a human Fab phage clone; two paragraphs print 'S4' for the PTA-6143 deposit; also called ATCC PTA-6143) VH: EVQLLESGGGLVQPGGSLRLSCAASGFTFSWYDMSWVRQAPGKGLEWVSRISPSGGYTMYADSVKGRFTISRDNSKNTLYLQMNSLRAEDTAVYYCARLEVGATSGGTAFDIWGQGTMVTVSS VL: not shown	39	no binding (tested: 10 ug/ml (log 1.0))	0.0232	0.174	4.15	0.0182	binds	no binding (tested: 10 ug/mL (single concentration))	≥ 35	
human anti-HMG1 antibody S16 (antibody, IgG1, V domains shown, full length IgG1 made from a human Fab phage clone; also called ATCC PTA-6259) VH: EVQLLESGGGLVQPGGSLRLSCAASGFTFSWYSMLWVRQAPGKGLEWVSYISPSGGFTNYADSVKGRFTISRDNSKNTLYLQMNSLRAEDTAVYYCARWDYNSGWYYDHWGQGTLVTVSS VL: DIQMTQSPDTLSLSPGERATLSCRASQSVNSRNLAWYQQKPGQAPRLLIYGASTRATGIPDRFSGSVSGTEFTLTISSLQPDDFATYYCQQYNSYFTFGQGTKLEIK	23		6.05	0.56		1.44	binds		≥ 35	1.24
human anti-HMG1 antibody E11 (antibody, IgG1, V domains shown, full length IgG1 made from a human Fab phage clone) VH: EVQLLESGGGLVQPGGSLRLSCAASGFTFSRYQMNWVRQAPGKGLEWVSSISPSGGHTHYADSVKGRFTISRDNSKNTLYLQMNSLRAEDTAVYYCAKDGRQGKISTVDHWGQGTLVTVSS VL: DIQMTQSPGTLSLSPGERATLSCRASQSVRSNFLAWYQQKPGQAPRLLIYGASRRASGIPDRFSGSGFGADFTLSISRLEPEDFAVYYCQQYGSSPNTFGQGSRVEIK		no binding (tested: 10 ug/ml (log 1.0))		1.22	101					
human anti-HMG1 antibody G4 (antibody, IgG1, V domains shown, full length IgG1 made from a human Fab phage clone; also called ATCC PTA-6258) VH: EVQLLESGGGLVQPGGSLRLSCAASGFTFSWYDMTWVRQAPGKGLEWVSSISPSGGYTKYADSVKGRFTISRDNSKNTLYLQMNSLRAEDTAVYYCTTEFYDYLDVWGKGTTVTVSS VL: DIQMTQSPGTLSLSPGEGATLSCRASQSVSSTYLAWYQQKPGQAPRLLIYEASKRATGTPARFSGSGSGTDFTLSISSLEPEDFAVYYCQHRHNWPPQWTFGQGTKVEVK	30	no binding (tested: 10 ug/ml (log 1.0))	5.01	0.9		5.51	binds	no binding (tested: 10 ug/mL (single concentration))		0.715
